Measurements as given in the Human Domainome abundance scans (Beltran et al. 2025).
± gives the uncertainty stated by the source.

B1: POU domain, class 3, transcription factor 1, residues 247 to 324; numbered along this chain, Q03052 (parent)
chain: EDAPSSDDLEQFAKQFKQRRIKLGFTQADVGLALGTLYGNVFSQTTICRFEALQLSFKNMCKLKPLLNKWLEETDSSS

Variants of: B1
Assay: abundance fitness (aPCA) (normalised: wild type 0, dead -1); higher = more abundant; growth selection in yeast, the domain comes from the species named
Settings: Homo sapiens

First: EDAPSSDDLEQFAKQFKQRRIKLGFTQADVGLALGTLYGNVFSQTTICRFEALQLSGKNMCKLKPLLNKWLEETDSSS [F57G]
Second: EDAPSSDDLEQFAKQFKQRRIKLGFTQADVGLALGTLYGNVFSQTTICRFEALQLSDKNMCKLKPLLNKWLEETDSSS [F57D]
The abundance fitness of the first is lower: -0.275 ± 0.051 for the first, -0.063 ± 0.11 for the second.

First: EDAPSSDDLEQFAKQFKQRRIKLGFTQADVGLALGTLYGNVFSQTTICRFEALQLCFKNMCKLKPLLNKWLEETDSSS [S56C]
Second: EDAPSSDDLEQFAKQFKQRRIKLGFTQADVGLALGTLYGNVFSQTTICRFEALQLLFKNMCKLKPLLNKWLEETDSSS [S56L]
The abundance fitness of the first is higher: -0.439 ± 0.1 for the first, -0.88 ± 0.12 for the second.

EDAPSSDDLEQFAKQFKQRRIKLGFTQADVGLALGTLYGNVFSQTTICRFEALQLMFKNMCKLKPLLNKWLEETDSSS [S56M] and EDAPSSDDLEQFAKQFKQRRIKLGFTQADVGLALGTLYGNVFSQTTICRFEALQLIFKNMCKLKPLLNKWLEETDSSS [S56I] are within error of each other in abundance fitness: -0.818 ± 0.19 for the first, -0.717 ± 0.48 for the second.

Going from EDAPSSDDLEQFAKQFKQRRIKLGFTQADVGLALGTLYGNVFSQTTICRFEALQLGFKNMCKLKPLLNKWLEETDSSS [S56G] to EDAPSSDDLEQFAKQFKQRRIKLGFTQADVGLALGTLYGNVFSQTTICRFEALQLHFKNMCKLKPLLNKWLEETDSSS [S56H], the abundance fitness falls from -0.198 ± 0.046 to -0.724 ± 0.26.

Compared with EDAPSSDDLEQFAKQFKQRRIKLGFTQADVGLALGTLYGNVFSQTTICRFEALQLPFKNMCKLKPLLNKWLEETDSSS [S56P], EDAPSSDDLEQFAKQFKQRRIKLGFTQADVGLALGTLYGNVFSQTTICRFEALQLEFKNMCKLKPLLNKWLEETDSSS [S56E] is lower in abundance fitness: 0.09 ± 0.073 for the first, -0.31 ± 0.072 for the second.

EDAPSSDDLEQFAKQFKQRRIKLGFTQADVGLALGTLYGNVFSQTTICRFEALQLAFKNMCKLKPLLNKWLEETDSSS [S56A] and EDAPSSDDLEQFAKQFKQRRIKLGFTQADVGLALGTLYGNVFSQTTICRFEALQLFFKNMCKLKPLLNKWLEETDSSS [S56F] are within error of each other in abundance fitness: -0.472 ± 0.071 for the first, -0.719 ± 0.26 for the second.

Compared with EDAPSSDDLEQFAKQFKQRRIKLGFTQADVGLALGTLYGNVFSQTTICRFEALQLTFKNMCKLKPLLNKWLEETDSSS [S56T], EDAPSSDDLEQFAKQFKQRRIKLGFTQADVGLALGTLYGNVFSQTTICRFEALQLYFKNMCKLKPLLNKWLEETDSSS [S56Y] is lower in abundance fitness: -0.287 ± 0.077 for the first, -0.745 ± 0.23 for the second.

Compared with EDAPSSDDLEQFAKQFKQRRIKLGFTQADVGLALGTLYGNVFSQTTICRFEALQLKFKNMCKLKPLLNKWLEETDSSS [S56K], EDAPSSDDLEQFAKQFKQRRIKLGFTQADVGLALGTLYGNVFSQTTICRFEALQLQFKNMCKLKPLLNKWLEETDSSS [S56Q] is lower in abundance fitness: -0.309 ± 0.092 for the first, -0.577 ± 0.12 for the second.

Compared with EDAPSSDDLEQFAKQFKQRRIKLGFTQADVGLALGTLYGNVFSQTTICRFEALQLDFKNMCKLKPLLNKWLEETDSSS [S56D], EDAPSSDDLEQFAKQFKQRRIKLGFTQADVGLALGTLYGNVFSQTTICRFEALQLVFKNMCKLKPLLNKWLEETDSSS [S56V] is lower in abundance fitness: 0.031 ± 0.088 for the first, -0.945 ± 0.13 for the second.

EDAPSSDDLEQFAKQFKQRRIKLGFTQADVGLALGTLYGNVFSQTTICRFEALQLRFKNMCKLKPLLNKWLEETDSSS [S56R] and EDAPSSDDLEQFAKQFKQRRIKLGFTQADVGLALGTLYGNVFSQTTICRFEALQLSFCNMCKLKPLLNKWLEETDSSS [K58C] are within error of each other in abundance fitness: -0.501 ± 0.065 for the first, -0.53 ± 0.33 for the second.

EDAPSSDDLEQFAKQFKQRRIKLGFTQADVGLALGTLYGNVFSQTTICRFEALQLSFDNMCKLKPLLNKWLEETDSSS [K58D] and EDAPSSDDLEQFAKQFKQRRIKLGFTQADVGLALGTLYGNVFSQTTICRFEALQLSFMNMCKLKPLLNKWLEETDSSS [K58M] are within error of each other in abundance fitness: -0.185 ± 0.21 for the first, -0.024 ± 0.095 for the second.

EDAPSSDDLEQFAKQFKQRRIKLGFTQADVGLALGTLYGNVFSQTTICRFEALQLSFGNMCKLKPLLNKWLEETDSSS [K58G] and EDAPSSDDLEQFAKQFKQRRIKLGFTQADVGLALGTLYGNVFSQTTICRFEALQLSFTNMCKLKPLLNKWLEETDSSS [K58T] are within error of each other in abundance fitness: -0.074 ± 0.046 for the first, 0.021 ± 0.074 for the second.

First: EDAPSSDDLEQFAKQFKQRRIKLGFTQADVGLALGTLYGNVFSQTTICRFEALQLSFLNMCKLKPLLNKWLEETDSSS [K58L]
Second: EDAPSSDDLEQFAKQFKQRRIKLGFTQADVGLALGTLYGNVFSQTTICRFEALQLSFANMCKLKPLLNKWLEETDSSS [K58A]
The abundance fitness of the first is lower: -0.347 ± 0.078 for the first, -0.096 ± 0.055 for the second.

EDAPSSDDLEQFAKQFKQRRIKLGFTQADVGLALGTLYGNVFSQTTICRFEALQLSFSNMCKLKPLLNKWLEETDSSS [K58S] and EDAPSSDDLEQFAKQFKQRRIKLGFTQADVGLALGTLYGNVFSQTTICRFEALQLSFFNMCKLKPLLNKWLEETDSSS [K58F] are within error of each other in abundance fitness: -0.152 ± 0.084 for the first, -0.433 ± 0.35 for the second.

Going from EDAPSSDDLEQFAKQFKQRRIKLGFTQADVGLALGTLYGNVFSQTTICRFEALQLSFRNMCKLKPLLNKWLEETDSSS [K58R] to EDAPSSDDLEQFAKQFKQRRIKLGFTQADVGLALGTLYGNVFSQTTICRFEALQLSFQNMCKLKPLLNKWLEETDSSS [K58Q], the abundance fitness rises from -0.142 ± 0.049 to -0.012 ± 0.068.

Going from EDAPSSDDLEQFAKQFKQRRIKLGFTQADVGLALGTLYGNVFSQTTICRFEALQLSFPNMCKLKPLLNKWLEETDSSS [K58P] to EDAPSSDDLEQFAKQFKQRRIKLGFTQADVGLALGTLYGNVFSQTTICRFEALQLSFVNMCKLKPLLNKWLEETDSSS [K58V], the abundance fitness falls from 0.13 ± 0.069 to -0.272 ± 0.073.

EDAPSSDDLEQFAKQFKQRRIKLGFTQADVGLALGTLYGNVFSQTTICRFEALQLSFINMCKLKPLLNKWLEETDSSS [K58I] and EDAPSSDDLEQFAKQFKQRRIKLGFTQADVGLALGTLYGNVFSQTTICRFEALQLSFHNMCKLKPLLNKWLEETDSSS [K58H] are within error of each other in abundance fitness: -0.045 ± 0.28 for the first, -0.07 ± 0.13 for the second.

Variant EDAPSSDDLEQFAKQFKQRRIKLGFTQADVGLALGTLYGNVFSQTTICRFEALQLSFENMCKLKPLLNKWLEETDSSS [K58E] has an abundance fitness of 0.031 ± 0.057.
